This is an account of results in article PMC10881517.

Experiment [1] addresses Pcdh15 EC1-11 PICA (cis-dimer). Kind of experiment: AFM force-clamp spectroscopy (single molecule); Cdh23 EC1-27-Fc dimer covalently on the cantilever, Pcdh15 EC1-11 PICA dimer covalently on the coverslip (sortagging); cantilever retracted 70 nm before clamping, clamping time 20 s; 25 mM HEPES, 100 mM NaCl, 50 mM KCl, 50 µM CaCl2; lifetimes from exponential fits of survival probability, Bell model fits.

Another experiment deals with Cdh23 EC1-5. Briefly: AFM force-clamp spectroscopy (single molecule); Pcdh15 EC1-2 covalently on the cantilever, Cdh23 variants (EC1-5, EC1-10, EC1-21, EC1-27) covalently on the coverslip (sortagging, Mal-PEG2-NHS); contact 1-2 s, clamp 10 s; 25 mM HEPES, 100 mM NaCl, 50 mM KCl, 50 µM CaCl2; modified sliding-rebinding model fit with unfolding probabilities.
In the next experiment the target is Cdh23 EC1-21. The experiment is described as above.
The next experiment addresses Cdh23 EC1-10. Described as above.
The target of experiment [2] is full-length Cdh23 EC1-27 (27 domains). The experiment is described as above.
Experiment [3] has as its target Mouse Cdh23 EC1-2 (mouse) (UniProt Q99PF4). Kind of experiment: AFM force-clamp spectroscopy (single molecule); Pcdh15 EC1-2 (WT or R113G) covalently on the cantilever, Cdh23 EC1-2 covalently on the coverslip (sortagging, Mal-PEG5000-NHS); contact 1-2 s, clamp 10 s; 25 mM HEPES, 100 mM NaCl, 50 mM KCl, 50 µM CaCl2; modified sliding-rebinding model fit of lifetime against force.

Chain of Mouse Cdh23 EC1-2 (mouse) (Q99PF4 24-228): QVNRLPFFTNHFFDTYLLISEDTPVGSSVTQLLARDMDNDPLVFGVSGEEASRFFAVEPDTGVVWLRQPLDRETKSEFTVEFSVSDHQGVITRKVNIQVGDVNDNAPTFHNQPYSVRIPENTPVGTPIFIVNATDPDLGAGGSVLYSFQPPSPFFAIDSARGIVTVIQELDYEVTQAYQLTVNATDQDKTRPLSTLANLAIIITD

Take “Cdh23 EC1-27 with the Fc region on its C-terminus (cis-dimer) (Fc fusion)”: in experiment [1], the intrinsic lifetime (τ0), low-force slip regime extrapolated to zero force is 31.8 s; the lifetime in the ideal-bond region (τ0) turned out to be 6.3 s; the lifetime of the short-lived component of the bi-exponential decay at high forces (>70 pN) was determined as 1 s; the τ0 of the Bell fit of the second slip region is 8.4 s.
In the experiment with Cdh23 EC1-5, “Mouse Pcdh15 EC1-2 (from UniProt Q99PJ1 27-259) (domain or fragment)” displayed a k+1 (intrinsic rate of reorganization, sliding-rebinding model) of 0.9 s⁻¹; a k+2 (intrinsic rate of rebinding, sliding-rebinding model) of 29.4 s⁻¹; a k-1 (intrinsic off-rate at zero force, single bond of the sliding-rebinding model) of 0.61 s⁻¹; a zero-force lifetime of 1.6 s. In the experiment with Cdh23 EC1-21, the k+1 (intrinsic rate of reorganization, sliding-rebinding model) came out at 1.2 s⁻¹; the k+2 (intrinsic rate of rebinding, sliding-rebinding model) came to 0.8 s⁻¹; the k-1 (intrinsic off-rate at zero force, single bond of the sliding-rebinding model) stood at 0.35 s⁻¹. In the experiment with Cdh23 EC1-10, this substance displayed a k+1 (intrinsic rate of reorganization, sliding-rebinding model) of 0.9 s⁻¹; a k+2 (intrinsic rate of rebinding, sliding-rebinding model) of 7.8 s⁻¹; a k-1 (intrinsic off-rate at zero force, single bond of the sliding-rebinding model) of 0.39 s⁻¹. In experiment [2], the k+1 (intrinsic rate of reorganization, sliding-rebinding model) was determined as 0.5 s⁻¹; the k+2 (intrinsic rate of rebinding, sliding-rebinding model) was determined as 0.5 s⁻¹; the k-1 (intrinsic off-rate at zero force, single bond of the sliding-rebinding model) was determined as 0.29 s⁻¹; the zero-force lifetime came to 3.4 s.
In experiment [3], “Pcdh15 EC1-2 (R113G), Q99PJ1 27-259 (domain or fragment; other documents disagree on this pair)” showed a k+1 (intrinsic rate of reorganization, sliding-rebinding model) of 0.6 s⁻¹ and a k-1 (intrinsic off-rate at zero force, single bond of the sliding-rebinding model) of 0.3 s⁻¹.
